From article PMC5985514
Where two headings read alike, the source gives them in different places.

Legend:
Experiment in all cases: NMR titration
[1] = molecular target: 3-fluorotyrosine labeled A34F variant of the B1 domain of protein G (T2Q background)
[2] = molecular target: 3-fluorotyrosine labeled A34F variant of the B1 domain of protein G (T2Q background); remark: listed apart in the source
[3] = molecular target: 3-fluorotyrosine labeled A34F variant of the B1 domain of protein G (T2Q background); remark: listed apart in the source
[4] = molecular target: 3-fluorotyrosine labeled A34F variant of the B1 domain of protein G (T2Q background); remark: listed apart in the source
[5] = molecular target: 3-fluorotyrosine labeled A34F variant of the B1 domain of protein G (T2Q background); remark: listed apart in the source
[6] = molecular target: 3-fluorotyrosine labeled A34F variant of the B1 domain of protein G (T2Q background); remark: listed apart in the source
[7] = molecular target: 3-fluorotyrosine labeled A34F variant of the B1 domain of protein G (T2Q background); remark: listed apart in the source
[8] = molecular target: 3-fluorotyrosine labeled A34F variant of the B1 domain of protein G (T2Q background); remark: listed apart in the source
[9] = molecular target: 3-fluorotyrosine labeled A34F variant of the B1 domain of protein G (T2Q background); remark: listed apart in the source
[10] = molecular target: 3-fluorotyrosine labeled A34F variant of the B1 domain of protein G (T2Q background); remark: listed apart in the source

- Kd [1]: 25 µM
- Kd [2]: 90 µM
- Kd [3]: 55 µM
- Kd [4]: 85 µM
- Kd [5]: 45 µM
- Kd [6]: 26 µM
- Kd [7]: 95 µM
- Kd [8]: 80 µM
- Kd [9]: 17 µM
- Kd [10]: 59 µM
Substance: 3-fluorotyrosine labeled A34F variant of the B1 domain of protein G (T2Q background) (domain or fragment)
